The values below come from US20230399394A1 (SUNSHINE GUOJIAN PHARMACEUTICAL SHANGHAI, published 2023).

For one experiment, the target named is T1, Cynomolgus IL-33-his (cynomolgus, UniProt A0A2K5W3I1 112-269, biotinylated in the ELISA of Example 6).
T1 construct: Bought protein; also called cynomolgus IL-33 protein; Cynomolgus monkeys IL-33
T1 sequence: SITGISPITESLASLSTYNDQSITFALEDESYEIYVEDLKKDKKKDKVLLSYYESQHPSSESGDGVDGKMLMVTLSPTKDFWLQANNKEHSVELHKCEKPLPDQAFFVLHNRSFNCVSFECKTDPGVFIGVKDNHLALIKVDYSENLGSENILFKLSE
Nature of the experiment: indirect ELISA, biotinylated cynomolgus IL-33-his on streptavidin plate. Here is the method:
The binding ability of murine antibody to cynomolgus IL-33 was determined by indirect enzyme-linked immunosorbent assay (ELISA). The specific methods were as follows: The plate was pre-coated by biotin-avidin (SA) which was diluted in coating solution (50 mM carbonate coating buffer, pH 9.6) to 2 μg/ml at 4° C. overnight. The plate was blocked with 5% skim milk powder at 37° C. for 2 hours, and stored at −80° C. for later use. Biotinylated recombinant cynomolgus IL-33-his protein was diluted to 1 μg/ml in coating solution (50 mM carbonate coating buffer, pH 9.6) and was added at 100 μl/well to the pre-coated SA plate for 0.5 h at 37° C. After washing the plate with PBST for 3 times, the antibodies to be tested were diluted by gradient with 1% BSA buffer and added into the blocked plate with 100 μl/well, and incubated at 37° C. for 1 hour. The plate was washed with PBST for 3 times, and the HRP-labeled goat anti-mouse IgG was added and placed at 37° C. for 30 min. After washing the plate with PBST for 3 times, the plate was patted on the absorbent paper to remove residual droplets as far as possible. […] OD values were read at 450 nm on the microplate reader to analyze the binding ability of the antibody to the target antigen cynomolgus IL-33-his.
Background: ELISA stands for enzyme-linked immunosorbent assay.

A further experiment has as its target T2, Human IL-33-his (human, UniProt O95760 112-270, biotinylated with EZ-Link NHS-Biotin where used as IL-33-his-biotin).
T2 construct: Used plain (SPR, cell assays) and biotinylated (ELISA); also called IL-33-his-biotin
T2 sequence: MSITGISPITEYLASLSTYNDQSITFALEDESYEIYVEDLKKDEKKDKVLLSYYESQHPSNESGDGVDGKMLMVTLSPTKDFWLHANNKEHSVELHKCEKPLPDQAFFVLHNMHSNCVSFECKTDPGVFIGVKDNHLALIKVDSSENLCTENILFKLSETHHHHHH
Description: competition ELISA as Example 10, ST2-Fc on plate; competitor ST2-Fc. Here is the method:
ST2-Fc protein was diluted to 1 μg/mL with ELISA coating solution to coat ELISA plate with 100 μL/well. The plate was placed in a wet box at 4° C. for 16 h for coating. The ELISA plate was washed 3 times with PBST, and then was blocked with 2% BSA prepared in PBS at 200 μL/well at room temperature for 2 h. The plate was washed once with PBST, and was patted dry to remove the excess blocking solution. Each monoclonal antibody was diluted with 1% BSA prepared in PBST in a 3-fold gradient. The highest concentration of antibody was 10 μg/mL, and the antibody was diluted for 11 gradients. The diluted antibody was mixed 1:1 with 10 ng/ml IL-33-his-biotin, and then the mixture was added into the ELISA well at 100 μL/well. The plate was incubated at room temperature for 1 h. Each concentration was added to duplicate wells in parallel (maximum final concentration of antibody was […], final concentration of IL-33-his-biotin was 5 ng/mL). Unbound or non-specifically bound primary antibodies were washed out. According to the instructions of the antibody, HRP labeled streptavidin secondary antibody was diluted to an appropriate concentration with antibody diluent solution, then it was added to ELISA plate with 100 μL/well, and was incubated at room temperature for 1 h. The ELISA plate was washed with PBST for 5 times, and was patted dry on absorbent paper to remove excess liquid. TMB developing solution was added with 100 μL/well for development to an appropriate degree. 2M H₂SO₄ was added with 70 μL/well to terminate development, and the absorbance was measured at 450 nm on a multifunctional microplate reader. The data were analyzed.
The blocking effect of the above humanized antibodies on the binding of IL-33 to its receptor ST2 was determined by the ELISA method, and the relevant experimental methods were referred to Example 10.

For experiment [1], the target named is T3, IL-33 mutant protein E62A (human, UniProt O95760 112-270).
T3 construct: Prokaryotic expression
T3 chain: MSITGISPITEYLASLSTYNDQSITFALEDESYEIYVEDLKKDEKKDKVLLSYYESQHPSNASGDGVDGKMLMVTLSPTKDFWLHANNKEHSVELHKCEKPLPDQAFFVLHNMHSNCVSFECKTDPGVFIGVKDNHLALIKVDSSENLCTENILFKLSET
Nature of the experiment: ELISA as Example 9; row E62A against WT-3. Here is the method: SA protein was diluted to 2 μg/mL to coat ELISA plate at 100 μL/well overnight at 4° C. The plate was washed with PBST (PBS containing 0.05% Tween20) for 3 times, and blocked with 2% BSA prepared in PBS at 200 μL/well, at room temperature for 2 h. After the plate was washed twice with PBST, IL-33-his-biotin protein was diluted to 1 μg/mL with 1% BSA prepared in PBST, and was added to ELISA plate at 100 μL/well. The plate was incubated at room temperature for 1 h, and each monoclonal antibody was diluted with 1% BSA prepared in PBST in a 3-fold gradient. The highest concentration of antibody was 10 μg/mL, and the antibody was diluted for 12 gradients. Each diluted monoclonal antibody was added to ELISA wells with 100 μL/well, and the plate was incubated at room temperature for 1 h. Each sample was added to duplicate wells in parallel. The plate was washed with PBST for 3 times, and HRP-anti human IgG Fc secondary antibody prepared with PBST was diluted at an appropriate ratio, and was added to ELISA wells at 100 μL/well. […] Each reaction solution was shaken uniformly and OD450 nm was read on a microplate reader. The data was analyzed and EC₅₀ was calculated.
Subsequently, according to the experimental method of Example 9, the affinity of the above mutant proteins to 874F7-Hu1 was determined, and IL-33 proteins (WT-1, WT-2, WT-3, and WT-4) without any mutation were set as controls.

B1: 874F7 (antibody, V domains shown)
VH: QVQLKESGPGLVAPSHSLSITCNVSGFSLSKYGVHWIRQIPGRGLDWLGVLRAGGSTGYNSALMSRLSISKDSSKSQVFLKMNDLRTDDTAVYFCVRDHYYYSSYGGFVYWGQGTLVTVSA
VL: DIQMTQSPASQSASLGESVTITCLASQTIGAWLAWYRQQPGKSPQLLIYAATRLADGVPSRFSGSGSGTEFSFKINNLQAEDFVSYYCQQLDSSPYTFGGGTRLEM
notes: Murine hybridoma antibody purified on Protein G; also called murine antibody 874F7
By EC50 is commonly meant the concentration that produces a half-maximal response. Read a low EC50 as an effect from little substance. In the experiment with Cynomolgus IL-33-his, B1 gave a half-maximal effective concentration (EC50) of 30 pM.

B2: 874F7-Hu1 (antibody, human IgG4 S228P, kappa)
heavy: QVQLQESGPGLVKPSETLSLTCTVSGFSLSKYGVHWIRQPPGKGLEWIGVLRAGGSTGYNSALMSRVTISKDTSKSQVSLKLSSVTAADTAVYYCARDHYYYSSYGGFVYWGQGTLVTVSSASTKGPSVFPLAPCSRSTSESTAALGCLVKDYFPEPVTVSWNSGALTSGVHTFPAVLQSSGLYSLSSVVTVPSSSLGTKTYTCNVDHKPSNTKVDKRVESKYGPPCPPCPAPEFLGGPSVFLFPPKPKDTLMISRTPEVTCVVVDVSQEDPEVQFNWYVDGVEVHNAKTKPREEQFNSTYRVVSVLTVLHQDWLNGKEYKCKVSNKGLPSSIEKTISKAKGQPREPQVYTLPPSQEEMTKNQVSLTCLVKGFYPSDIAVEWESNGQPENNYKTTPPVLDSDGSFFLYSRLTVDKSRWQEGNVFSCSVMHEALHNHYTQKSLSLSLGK
light: DIQMTQSPSSVSASVGDRVTITCLASQTIGAWLAWYQQKPGKSPKLLIYAATRLADGVPSRFSGSGSGTDFTLTISSLQPEDFATYYCQQLDSSPYTFGQGTKVEIKRTVAAPSVFIFPPSDEQLKSGTASVVCLLNNFYPREAKVQWKVDNALQSGNSQESVTEQDSKDSTYSLSSTLTLSKADYEKHKVYACEVTHQGLSSPVTKSFNRGEC
notes: also called 874F7-Hul; humanized antibody 874F7-Hu1
As a reminder, the IC50 is the concentration needed to halve the response being measured. A low value points to inhibition by little substance. As to B2, the IC50 with Human IL-33-his turned out to be 451 pM. In addition, the Affinity decline ratio in experiment [1] was determined as 0.8 fold.
